Data taken from PMC4738263 (Scientific Reports, 2016).

B1: His-tag-attached wild-type Hydrogenobacter thermophilus cytochrome c552, holo protein [modified: heme c attached (holo protein); heme c attached (holo protein)] [Hydrogenobacter thermophilus] / itself (parent)
chain: NEQLAKQKGCMACHDLKAKKVGPAYADVAKKYAGRKDAVDYLAGKIKKGGSGVWGSVPMPPQNVTDAEAKQLAQWILSIK

Variants of: B1
Experiment: Ni affinity chromatography (peak areas)
Details: with itself, protein obtained from E. coli cells, read off a plot

screen value (parent: 27) | screen value (parent: 68) | screen value | Variant
1.8% | 92% | 6.2% | NEQLFKQKGCVACHDLKAKKVGPAYADVAKKFAGRKDAVDELAGKIKKGGSGVWGSVPMPPQNVTDAEAKQLAQWVLSIK
19% | 75% | 5.5% | NEQLAKQKGCMACHDLKAKKVGPAYADVAKKYAGRKDAVDYLAGKIKKGGSGVWGSVPMPPQNVTDAEAKQLAQWVLSIK
14% | 83% | 3% | NEQLFKQKGCVACHDLKAKKVGPAYADVAKKYAGRKDAVDYLAGKIKKGGSGVWGSVPMPPQNVTDAEAKQLAQWILSIK
11% | 76% | 13% | NEQLAKQKGCMACHDLKAKKVGPAYADVAKKFAGRKDAVDELAGKIKKGGSGVWGSVPMPPQNVTDAEAKQLAQWILSIK
